In data set [1] the target is T1, alpha-synuclein fibril, F-type conformer (fibrils) (UniProt P37840 P37840:1-140). The data set can be described thus: FP filter; nitrocellulose filter; retained much more than random sequence.
In data set [2] the target is amyloid-beta 40 fibril (UniProt P05067 P05067:672-711). As to the kind of experiment: FP filter; nitrocellulose filter. Conditions: tags: Abeta40 fibers, chain copies: fibril (stated). The protocol: (§1) The affinity of candidate aptamers as well as that of aptamers from the literature was also measured against different “amyloid” type fibers (Tau1N3R fibers and Aβ40 fibers), in addition to the conformers of F and R α-syn fiber. The affinity of the candidate aptamers against the α-Syn fiber “P110” was also measured. This fiber was made from α-Syn protein truncated from amino acid n° 110 (thus missing the 30 amino acids of the C-terminal domain). The oligonucleotides (aptamers) at 10 nM (hybridized by heat shock to SpG-LNA radioactively marked with P32 for RNA2′F chemistry oligonucleotides, or directly marked with P32 for DNA oligonucleotides) were presented to proteins at 250 nM in a solution of Ts1X containing Igepal at 0.1% and ssDNA added in a 5-1 proportion relative to the oligonucleotides (that is to say between 0.135 μg/ml and 17.325 μg/ml). After 30 min of incubation at 37° C., 25 μL of each mixture is deposited on the nitrocellulose membrane, then filtered. Two washes with Ts1X are then carried out. The amounts of oligonucleotides retained on the nitrocellulose membrane are quantified by exposing the membrane to a photostimulable phosphorus screen. The Kd and Bₘₐₓ were calculated by means of the Prism software using a non-linear regression model analyzing the (specific and non-specific) total affinity of a candidate for the target, assuming that there is only one binding site on the target for the candidate. The measurements were carried out in triplicate (three independent experiments on different days) for the F and R type α-Syn fibers, and in duplicate for the other fibers (Tau1N3R and the fibers Aβ40, and P110) as well as for α-Syn monomers.
Sequence of amyloid-beta 40 fibril (P05067 672-711, one chain of several): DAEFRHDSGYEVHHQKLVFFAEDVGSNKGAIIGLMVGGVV

For data set [3], the target named is alpha-synuclein fibril P110 (C-terminally truncated) (UniProt P37840 P37840:1-110). The data set can be described thus: FP filter; nitrocellulose filter. The note with it: tags: fibril lacking the 30 C-terminal residues, chain copies: fibril (stated). The protocol:
as §1

Data set [4] deals with T1, alpha-synuclein fibril, F-type …. The data set can be described thus: FP filter; nitrocellulose filter; Ts1X (10 mM HEPES pH 7.6, 150 mM NaCl, 5 mM KCl, 1.5 mM CaCl2, 1 mM MgCl2), 0.1% Igepal, ssDNA competitor, 37 C; Bmax 52.48 fmol; 3/3.
Data set [5] has the same target. The data set can be described thus: FP filter; nitrocellulose filter; 10 nM aptamer, 1 uM fibers, Ts1X, 37 C.
The target of data set [6] is alpha-synuclein fibril, R-type conformer (ribbons) (UniProt P37840 P37840:1-140). As to the kind of experiment: FP filter; nitrocellulose filter; not above random sequence.
The target in data set [7] is T1, alpha-synuclein fibril, F-type …. Described as above.

B1: 4F03-G (ssRNA)
RNA: GGGAGAGUAUCCGUUGGAGGCAUGCAACAGACGCACCGUACACACAUCUUGGCCGUUGGCUGCCCGACCAGCCAGAUCGGAAGAGCGUCGUGUAGGGCAUUGCCCCAGCGUGACUGCCUA
modifications: 2'-F on all pyrimidines
With B1, in data set [1], the binding result was “binds”.

B2: P65-G (P65_10854) (ssRNA)
RNA: GGGAGAGUAUCCGUUGGAGGCAUCGCACAGUGUACACCUACACACAGCAUACCUGUUGGCAUCCCAGGUUGCCAGAUCGGAAGAGCGUCGUGUAGGGCAUUGCCCCAGCGUGACUGCCUA
modifications: 2'-F on all pyrimidines
With B2, the binding result in data set [1] is recorded as “binds”.

B3: N30-G (ssRNA)
RNA: GGGAGAGUAUCCGUUGAGGCUGAUCGAUCCACGUCCGACAACGCGUUUACUCGCCAUCAGAUCGGAAGAGCGUCGUGUAGGGCAUUGCCCCAGCGUGACUGCCUA
modifications: 2'-F on all pyrimidines
Broadly, the Kd is the free concentration of one partner at which half of the binding sites on the other are occupied at equilibrium, for simple one-to-one binding. The low end stands for higher affinity, the high end for lower affinity. Consider B3, for which the binding result in data set [2] and in data set [3] was “no binding” in each case. The same molecule returned an equilibrium dissociation constant (Kd) in data set [4] of 6.62 nM.

B4: F124-G (PF_124) (ssRNA)
RNA: GGGAGAGUAUCCGUUGGAGGCAUCACGGACACCUACCCGACGGCAUGUCAGGACACAUGUUGUGCUCCGUGUGAGAUCGGAAGAGCGUCGUGUAGGGCAUUGCCCCAGCGUGACUGCCUA
modifications: 2'-F on all pyrimidines
On to B4, for which, in data set [1], the binding result is reported as “binds”.

B5: 4F01-G (ssRNA)
RNA: GGGAGAGUAUCCGUUGGAGGCAUAGCAGCACACGACCAGUGUGCCCCACACCCAGUGGUGGUCUGUGGUGUGCAGAUCGGAAGAGCGUCGUGUAGGGCAUUGCCCCAGCGUGACUGCCUA
modifications: 2'-F on all pyrimidines
B5: the binding result in data set [1] is “binds”.

B6: F5R2 (ssDNA)
DNA: ATCGAGTGGACGAGTGCCTCCGGTACGAGCTGTCTGATGGGTTTGCGCGCAGGATCCA
For B6, the binding result in data set [2] (label: 32P) and in data set [3] (label: 32P) was “no binding” throughout.

B7: 4F05-G (ssRNA)
RNA: GGGAGAGUAUCCGUUGGAGGCAUGCCGCAGGCUACACCACAGCUUCCCCUUCAGCGUGUUGUGGAUACUCGGCAGAUCGGAAGAGCGUCGUGUAGGGCAUUGCCCCAGCGUGACUGCCUA
modifications: 2'-F on all pyrimidines
On to B7, for which, in data set [1], the binding result is on record as “binds”.

B8: N3-G (ssRNA)
RNA: GGGAGAGUAUCCGUUGAGGCUGACAACGCGUUUACCUCACACCACGUCAUCCGUUGCCAGAUCGGAAGAGCGUCGUGUAGGGCAUUGCCCCAGCGUGACUGCCUA
modifications: 2'-F on all pyrimidines
B8 showed a binding signal in data set [5] of 3.5 fold over Scr2-G.

B9: N124-G (ssRNA)
RNA: GGGAGAGUAUCCGUUGAGGCUGAUCCGACCAUGCUUCAACUUAUACCUCGGGGACUGUAGAUCGGAAGAGCGUCGUGUAGGGCAUUGCCCCAGCGUGACUGCCUA
modifications: 2'-F on all pyrimidines
In the case of B9, the binding result in data set [3] is on record as “no binding”.

B10: Tau 3146 (ssDNA)
DNA: GCCTGTTGTGAGCCTCCTGTCGAACCTTTGGGGTGGCTTGACGAAGAAAGTAGTTGAGCGTTTATTCTTGTCTCCC
As to B10, the binding result in data set [6] and in data set [7] was “no binding” in each case.

B11: 4F02-G (ssRNA)
RNA: GGGAGAGUAUCCGUUGGAGGCAUGCUGGCAGCACGCACCGCUGACCGCUGGCUGCACUAUGCGUGUGGAGUGCAGAUCGGAAGAGCGUCGUGUAGGGCAUUGCCCCAGCGUGACUGCCUA
modifications: 2'-F on all pyrimidines
On to B11, for which the binding result in data set [1] is listed as “binds”.
